{"source": "patent US20250302974A1", "about": "“LECTIN-DRUG CONJUGATES” (UNICHEM LABORATORIES LIMITED, priority 2021, published 2025)", "molecules": {"B1": {"name": "SEQ ID NO: 2: recombinant variant of the S. rolfsii lectin amino acid sequence (reported as Rec-2 in WO2010/095143) (protein)", "chain": "TYKITVRVYQTNPDAFFHPVEKTVWKYANGGTWTITDDQHVLTMGGSGTSGTLRFHADNGESFTATFGVHNYKRWCDIVTNLAADETGMVINQQYYSQKNREEARERQLSNYQVKNAKGRNFQIVYTEAEGNDLHANLIIG"}}, "key": {"[1]": {"test_system": "bladder cancer cells (T24)", "assay": "Colocalization study in cell organelles, confocal microscopy, FITC-tagged lectin", "type": "cell-based", "details": "100 μg/mL FITC-labelled, 2 h", "procedure": "Study was performed to analyze the localization of SEQ ID NO 2 (test item) in cell organelles using Confocal microscopy.\nTest Item provided as aqueous solution was tagged with FITC label at Bioklone Biotech Pvt Ltd. Resultant concentration of FITC tagged test Item was 1 mg/mL.\nThe stock solution of Test Item was diluted in Serum Free Medium (SFM) at single concentration—100 μg/mL.\nCells were plated on a glass coverslip at a density of 0.1×10^6 cells per well.\nFollowing the incubation cells were washed with PBS (3 washes) and fixed using 4% paraformaldehyde for 10 min at RT. After fixation, cells were permeabilized using 0.5% IGEPAL for 10 min at RT (Permeabilization was not done for cells that were stained with Pan-Cadherin). Post permeabilization, cells were blocked using 5% normal goat serum for 1 hour at RT. Post blocking, cells were treated with organelle specific markers for 1.5 hours at RT followed by secondary antibody for 2 hours at RT.\nFollowing antibodies were used for different organelles:\nPost incubation, cells were washed using PBST (3 washes) and PBS (3 washes) and stained with DAPI (nucleus stain) for 3 min at RT.\nCells were washed (3 washes) and mounted on a glass slide using Prolong Glass antifade mountant. Imaging was done using Confocal fluorescence microscope (Make: Olympus FV1000) at AIRF, JNU. Images were captured using software FluoView. […]"}, "[2]": {"test_system": "ovarian cancer cell line (PA-1)", "assay": "Cytotoxicity assay, cell titer glow luminescence, 72 h", "type": "cell-based", "procedure": "(§1) T-24 Cell line were cultured in McCoy's 5a Medium Modified supplemented with 10% FBS and the PA-1 Cell line was cultured in EMEM Media supplemented with 10% FBS. The assay was performed by plating 5,000 cells/well and incubated at 37° C. overnight. […] Each concentration was added in triplicate and media-only wells used as a control. After incubation for 72 h cell titer glow (Promega) reagent (50 μL) was added to each well and the plates shaken for 5 mins and the luminescence was recorded. Percent viability was determined by dividing luminescence of the treated well by the non-treated well and multiplying by 100. Data was analysed using non-linear regression with a logarithmic scale.\n(§2) 5,000 cells/well were plated and incubated at 37° C. overnight. Conjugates/vehicle control dilutions were made in respective media and added to cells. Volume added: 50 uL to each well. Starting treatment concentration was 1 uM for Conjugate of formula 16 and 18, and control SEQ ID NO: 5 alone and 10% for vehicle control (1×PBS with 20% DMA) and then diluted 10-fold down for a total of 11 treatment dilutions. Each concentration was analysed in triplicates. Media-only wells was used as a control to calculate percent viability. Cell titer glow reagent (volume: 50 uL) was added to each well, the plate was shaken for 5 mins and the luminescence was recorded. Drug Treatment Time: 72 hours. Percent viability was calculated by dividing the luminescence signal obtained for each treated well by the untreated well (media-only control) and multiplying by 100."}, "[3]": {"test_system": "human urinary bladder cancer cell line (T-24)", "assay": "Cytotoxicity assay, cell titer glow luminescence, 72 h", "type": "cell-based", "procedure": "as §1, §2"}, "[4]": {"assay": "Glycan binding study, N-Glycan array containing 100 glycans"}, "[5]": {"assay": "Glycan binding study, O-Glycan array containing 94 glycans", "details": "T-antigen and its extended core structures"}, "[6]": {"test_system": "PBMC Normal", "assay": "Cytotoxic effect by MTT assay, 48 h", "details": "for Percent cytotoxicity wrt control: PBMC, 48 h", "procedure": "(§3) Cells were treated with Test Items at various concentrations (0.0001 μM-10 μM) for 48 h. The cells corresponding to Positive Control group were treated with Doxorubicin at a concentration ranging from 0.1 μM-100 μM. The Untreated cells were used as Control. After 48 h of incubation, the effect of Test Items on cytotoxicity of cells was determined by MTT assay, the plates were taken out and 20 μl of 5 mg/m1 of MTT 3-(4,5-dimethythiazol-2-yl)-2,5-diphenyl tetrazolium bromide solution was added to all the wells. Cells were incubated for 3 h at 37° C. The supernatant was aspirated. 150 μl of DMSO was added to each well to dissolve formazan crystals. The absorbance of each well was then read at 540 nm using Synergy HT micro plate reader.\n(§4) The % Cytotoxicity was calculated using the formula:\n(§5) Where, X=Absorbance of cells treated with Test Item; R=Absorbance of Control cells (Untreated cells maintained in growth medium only)."}, "[7]": {"test_system": "KB Cervix", "assay": "Cytotoxic effect by MTT assay, 48 h", "details": "for Percent cytotoxicity wrt control: KB, 48 h", "procedure": "as §3, §4, §5\n(§6) Selectivity Index was calculated using the formula:\n(§7) SI=IC50 in Normal cell/IC50 in cancer cell.\n(§8) Activity scores of the Selective Index values were categorized as: • Not selective (SI value ≤1) • Moderately selective (1<SI value <5) • Selective (SI value ≥5)"}, "[8]": {"test_system": "PANC-1 Pancreatic", "assay": "Cytotoxic effect by MTT assay, 48 h", "details": "for Percent cytotoxicity wrt control: 48 h", "procedure": "as §3, §4, §5, §6, §7, §8"}, "[9]": {"test_system": "HT29 Colon", "assay": "Cytotoxic effect by MTT assay, 48 h", "details": "for Percent cytotoxicity wrt control: 48 h", "procedure": "as §3, §4, §5, §6, §7, §8"}, "[10]": {"test_system": "A549 Lungs", "assay": "Cytotoxic effect by MTT assay, 48 h", "details": "for Percent cytotoxicity wrt control: 48 h", "procedure": "as §3, §4, §5, §6, §7, §8"}}, "data": [{"molecule": "B1", "values": [{"measurement": "colocalization in cell organelles", "setting": "[1]", "value": "colocalized in Mitochondria, Endoplasmic reticulum, Golgi bodies and Plasma membrane"}, {"measurement": "localization in the nuclear envelope", "setting": "[1]", "value": "no localization was observed"}, {"measurement": "IC50 values, PA-1 Cell line", "setting": "[2]; 72 h", "value": 20.3, "unit": "mg/L"}, {"measurement": "cytotoxic effects below 10 μM concentration", "setting": "[2]; below 10 μM", "value": "does not exhibit major cytotoxic effects"}, {"measurement": "IC50 values, T-24 cell line", "setting": "[3]; 72 h", "value": 10.4, "unit": "mg/L"}, {"measurement": "cytotoxic effects below 10 μM concentration", "setting": "[3]; below 10 μM", "value": "does not exhibit major cytotoxic effects"}, {"measurement": "binding to N-glycans (in words)", "setting": "[4]", "value": "specific binding"}, {"measurement": "binding profile to O-glycans (in words)", "setting": "[5]", "value": "strong and broad binding profile"}, {"measurement": "Percent cytotoxicity wrt control", "setting": "[6]; 0.0001 μM", "value": "−7.4", "unit": "%"}, {"measurement": "Percent cytotoxicity wrt control", "setting": "[6]; 0.001 μM", "value": 19.9, "unit": "%"}, {"measurement": "Percent cytotoxicity wrt control", "setting": "[6]; 0.01 μM", "value": 24, "unit": "%"}, {"measurement": "Percent cytotoxicity wrt control", "setting": "[6]; 0.1 μM", "value": 44.9, "unit": "%"}, {"measurement": "Percent cytotoxicity wrt control", "setting": "[6]; 1 μM", "value": 49.5, "unit": "%"}, {"measurement": "Percent cytotoxicity wrt control", "setting": "[6]; 10 μM", "value": 43.4, "unit": "%"}, {"measurement": "IC50", "setting": "[6]; read-out: IC50 Values, PBMC Normal, after 48 h of treatment", "value": "> 10", "unit": "µM"}, {"measurement": "Percent cytotoxicity wrt control", "setting": "[7]; 0.0001 μM", "value": "−1.5", "unit": "%"}, {"measurement": "Percent cytotoxicity wrt control", "setting": "[7]; 0.001 μM", "value": "−2.6", "unit": "%"}, {"measurement": "Percent cytotoxicity wrt control", "setting": "[7]; 0.01 μM", "value": "−3.9", "unit": "%"}, {"measurement": "Percent cytotoxicity wrt control", "setting": "[7]; 0.1 μM", "value": 20.4, "unit": "%"}, {"measurement": "Percent cytotoxicity wrt control", "setting": "[7]; 1 μM", "value": 51.2, "unit": "%"}, {"measurement": "Percent cytotoxicity wrt control", "setting": "[7]; 10 μM", "value": 54.9, "unit": "%"}, {"measurement": "IC50", "setting": "[7]; read-out: IC50 Values, KB Cervix, after 48 h of treatment", "value": 0.88, "unit": "µM"}, {"measurement": "Percent cytotoxicity wrt control", "setting": "[8]; PANC-1, 0.0001 μM", "value": 9.5, "unit": "%"}, {"measurement": "Percent cytotoxicity wrt control", "setting": "[8]; PANC-1, 0.001 μM", "value": 17, "unit": "%"}, {"measurement": "Percent cytotoxicity wrt control", "setting": "[8]; PANC-1, 0.01 μM", "value": 20.5, "unit": "%"}, {"measurement": "Percent cytotoxicity wrt control", "setting": "[8]; PANC-1, 0.1 μM", "value": 22.5, "unit": "%"}, {"measurement": "Percent cytotoxicity wrt control", "setting": "[8]; PANC-1, 1 μM", "value": 34.4, "unit": "%"}, {"measurement": "Percent cytotoxicity wrt control", "setting": "[8]; PANC-1, 10 μM", "value": 36.4, "unit": "%"}, {"measurement": "IC50", "setting": "[8]; read-out: IC50 Values, PANC-1 Pancreatic, after 48 h of treatment", "value": "> 10", "unit": "µM"}, {"measurement": "Percent cytotoxicity wrt control", "setting": "[9]; HT29, 0.0001 μM", "value": 14, "unit": "%"}, {"measurement": "Percent cytotoxicity wrt control", "setting": "[9]; HT29, 0.001 μM", "value": 16.6, "unit": "%"}, {"measurement": "Percent cytotoxicity wrt control", "setting": "[9]; HT29, 0.01 μM", "value": 22.5, "unit": "%"}, {"measurement": "Percent cytotoxicity wrt control", "setting": "[9]; HT29, 0.1 μM", "value": 24.7, "unit": "%"}, {"measurement": "Percent cytotoxicity wrt control", "setting": "[9]; HT29, 1 μM", "value": 35.4, "unit": "%"}, {"measurement": "Percent cytotoxicity wrt control", "setting": "[9]; HT29, 10 μM", "value": 54.1, "unit": "%"}, {"measurement": "IC50", "setting": "[9]; read-out: IC50 Values, HT29 Colon, after 48 h of treatment", "value": 9.39, "unit": "µM"}, {"measurement": "Percent cytotoxicity wrt control", "setting": "[10]; A549, 0.0001 μM", "value": "−0.5", "unit": "%"}, {"measurement": "Percent cytotoxicity wrt control", "setting": "[10]; A549, 0.001 μM", "value": "−15.5", "unit": "%"}, {"measurement": "Percent cytotoxicity wrt control", "setting": "[10]; A549, 0.01 μM", "value": "−1.1", "unit": "%"}, {"measurement": "Percent cytotoxicity wrt control", "setting": "[10]; A549, 0.1 μM", "value": "−6.9", "unit": "%"}, {"measurement": "Percent cytotoxicity wrt control", "setting": "[10]; A549, 1 μM", "value": 31.9, "unit": "%"}, {"measurement": "Percent cytotoxicity wrt control", "setting": "[10]; A549, 10 μM", "value": 48.2, "unit": "%"}, {"measurement": "IC50", "setting": "[10]; read-out: IC50 Values, A549 Lungs, after 48 h of treatment", "value": "≥ 10", "unit": "µM"}]}]}
